The assay is described as follows: Hydrolysis of polysorbate 80 by spiked LAL, oleic acid release by LC-MS. The conditions noted are these: 5 ppm LAL, 0.1% PS80, pH 5.5, after 2 days of incubation. It counts as biochemical.

B1: LAL: lysosomal acid lipase; recombinant CHO LAL generated in-house, spiked into PS80 samples (protein, UniProt P38571 77-399, looked up)
Lysosomal acid …: GPKPVVFLQHGLLADSSNWVTNLANSSLGFILADAGFDVWMGNSRGNTWSRKHKTLSVSQDEFWAFSYDEMAKYDLPASINFILNKTGQEQVYYVGHSQGTTIGFIAFSQIPELAKRIKMFFALGPVASVAFCTSPMAKLGRLPDHLIKDLFGDKEFLPQSAFLKWLGTHVCTHVILKELCGNLCFLLCGFNERNLNMSRVDVYTTHSPAGTSVQNMLHWSQAVKFQKFQAFDWGSSAKNYFHYNQSYPPTYNVKDMLVPTAVWSGGHDWLADVYDVNILLTQITNLVFHESIPEWEHLDFIWGLDAPWRLYNKIINLMRKYQ
modifications: recombinant, CHO-expressed
notes: lysosomal acid lipase; recombinant CHO LAL generated in-house, spiked into PS80 samples
Consider B1, for which the “oleic acid released (hydrolysis of PS80)” value is 3 µg/mL.

The values are drawn from patent publication US12540945B2, “Probe and method for identifying host cell protein impurities” (Regeneron Pharmaceuticals, Inc., priority 2021, dated 2026).
